Assay results: patent US20250346685A1

Assays:
FcgRI = FcgRI (UniProt P12314); assay: SPR
[1] = target: human CD3 on T cells (Jurkat cells; human peripheral blood CD4+ and CD8+ T-cells) (human) (UniProt P07766); assay: flow cytometry on Jurkat cells

Chain of FcgRI (P12314 16-288): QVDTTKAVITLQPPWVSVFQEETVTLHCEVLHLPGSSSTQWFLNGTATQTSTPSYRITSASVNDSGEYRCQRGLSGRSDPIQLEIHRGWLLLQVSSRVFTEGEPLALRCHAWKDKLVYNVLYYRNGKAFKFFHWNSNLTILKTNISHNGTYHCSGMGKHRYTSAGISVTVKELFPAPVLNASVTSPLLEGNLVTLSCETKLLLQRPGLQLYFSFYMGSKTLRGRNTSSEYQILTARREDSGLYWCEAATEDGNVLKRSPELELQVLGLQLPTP

Substance | Kd (FcgRI) | affinity (FACS) [1]
KLH-hIgG4 | 8.78 nM | –
OKT3-hIgG1 (antibody) | – | 0.27 nM
